Earlier results as cited in paper PMC3530658.

Biological target: FEN-1 (Homo sapiens) (UniProt P39748)
UniProt P39748, sequence (P39748 whole entry): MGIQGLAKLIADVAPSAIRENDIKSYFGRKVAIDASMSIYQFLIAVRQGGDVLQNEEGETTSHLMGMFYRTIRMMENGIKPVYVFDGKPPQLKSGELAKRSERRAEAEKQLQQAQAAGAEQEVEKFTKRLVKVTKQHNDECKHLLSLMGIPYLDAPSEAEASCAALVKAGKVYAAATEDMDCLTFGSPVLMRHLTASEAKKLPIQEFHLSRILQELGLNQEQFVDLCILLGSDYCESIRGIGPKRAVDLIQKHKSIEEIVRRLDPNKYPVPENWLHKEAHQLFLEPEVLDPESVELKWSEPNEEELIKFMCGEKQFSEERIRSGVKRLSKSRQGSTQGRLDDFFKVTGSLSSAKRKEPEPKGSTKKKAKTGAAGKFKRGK

- Kd: 200 nM
Substance: NEIL1 CTD (from UniProt Q96FI4)
